Laboratory results from patent US20190071499A1 (published 2019).

Experiments:
human IFN-α21 = biological target: T1, human IFN-α21 (human, UniProt P01568 24-189); assay: ELISA or LIPS (Table 7 summary)
T1 construct: commercial recombinant protein; also called rhIFN-α21; IFN-α21 (PBL)

human IFN-α16 = biological target: T2, human IFN-α16 (human, UniProt P05015 24-189); assay: ELISA or LIPS (Table 7 summary)
T2 construct: recombinant protein; also called rhIFN-α16

human IFN-α10 = biological target: T3, human IFN-α10 (human, UniProt P01566 24-189); assay: ELISA or LIPS (Table 7 summary)
T3 construct: recombinant protein; also called rhIFN-α10

g1mIFN-α9 = biological target: T4, g1mIFN-α9 (mouse, UniProt P09235 24-190); assay: LIPS
T4 construct: also called murine IFN-α9 (Gaussia luciferase fusion); not shown: Gaussia luciferase fusion partner
T4 sequence (looked up): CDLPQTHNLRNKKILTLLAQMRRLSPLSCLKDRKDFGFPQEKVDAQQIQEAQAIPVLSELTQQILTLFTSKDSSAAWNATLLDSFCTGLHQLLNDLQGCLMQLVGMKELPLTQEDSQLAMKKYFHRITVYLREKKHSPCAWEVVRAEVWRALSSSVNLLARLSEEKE

[1] = biological target: T5, human Fc fusion mouse IFN-α4 (mouse, UniProt P07351 25-186); assay: ELISA, human Fc fusion mouse IFN-α
T5 construct: bought (SinoBiological); also called murine IFN-α4; not shown: human Fc
T5 sequence (looked up): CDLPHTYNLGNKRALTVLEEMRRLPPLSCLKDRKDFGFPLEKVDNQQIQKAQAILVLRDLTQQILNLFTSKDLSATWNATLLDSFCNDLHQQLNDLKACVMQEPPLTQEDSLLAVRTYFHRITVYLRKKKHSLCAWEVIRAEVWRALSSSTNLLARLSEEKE

[2] = biological target: T6, human Fc fusion mouse IFN-α2 (mouse, UniProt P01573 24-190); assay: ELISA, human Fc fusion mouse IFN-α
T6 construct: bought (SinoBiological); also called murine IFN-α2; murine INFA2; not shown: human Fc
T6 sequence (looked up): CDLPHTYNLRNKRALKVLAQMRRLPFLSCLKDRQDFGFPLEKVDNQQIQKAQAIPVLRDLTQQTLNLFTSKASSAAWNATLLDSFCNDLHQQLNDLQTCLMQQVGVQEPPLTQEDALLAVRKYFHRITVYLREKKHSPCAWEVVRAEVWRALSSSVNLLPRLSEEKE

human IFN-α1 = biological target: T7, human IFN-α1 (human, UniProt P0DY56 24-189); assay: ELISA or LIPS (Table 7 summary; ELISA at 300 ng/ml MAB in paragraph 311)
T7 construct: commercial recombinant protein; also called IFN-alpha 1beta; IFN-α1/13
Description: In this experiment, examined MABs (300 ng/ml) were incubated for 2 hours with antigen-coated plates (coating overnight at 1 μg/ml in PBS, followed by wash out and blocking with 2% BSA in PBS). The plates were subsequently washed and binding of MABs was detected with anti-human HRP-conjugated secondary antibody.

Measured: binding result

T2 sequence (P05015 24-189 limits assumed): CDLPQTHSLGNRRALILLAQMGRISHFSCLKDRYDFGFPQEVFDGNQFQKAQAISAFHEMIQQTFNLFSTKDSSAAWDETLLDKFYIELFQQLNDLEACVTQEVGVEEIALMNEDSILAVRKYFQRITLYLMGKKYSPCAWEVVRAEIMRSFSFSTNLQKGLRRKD
T7 sequence (P0DY56 entry or part of it limits assumed): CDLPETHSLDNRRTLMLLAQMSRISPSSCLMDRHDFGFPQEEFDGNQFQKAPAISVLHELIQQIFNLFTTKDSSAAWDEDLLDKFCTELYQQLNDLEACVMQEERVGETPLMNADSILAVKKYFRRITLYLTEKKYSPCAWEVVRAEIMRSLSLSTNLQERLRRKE
T3 sequence (P01566 24-189 limits assumed): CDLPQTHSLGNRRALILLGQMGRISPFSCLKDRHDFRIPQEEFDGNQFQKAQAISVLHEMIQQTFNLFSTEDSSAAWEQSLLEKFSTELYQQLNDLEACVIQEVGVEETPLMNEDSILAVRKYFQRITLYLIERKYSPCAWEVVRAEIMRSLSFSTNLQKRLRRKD
T1 sequence (P01568 24-189 limits assumed): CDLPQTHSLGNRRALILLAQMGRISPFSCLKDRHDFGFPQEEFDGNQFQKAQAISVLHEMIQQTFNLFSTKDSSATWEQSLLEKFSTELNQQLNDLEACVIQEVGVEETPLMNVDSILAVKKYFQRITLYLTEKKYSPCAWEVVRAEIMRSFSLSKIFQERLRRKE

B1: 5D1 (antibody, human IgG1, kappa, V domains shown)
VH: EVQLVQAGAEVKAPGESLRISCKVSGYTFTSYWISWVRQIPGKGLEWMVKIDPRDSYTIYNPSFQGHVSISVDKSITTVYLQWSSLQASDTAIYYCVRHYLTQSLVDYFDHWGQGTLVAVSS
VL: DIQMTQSPSSLSASVGDSVTITCRASQSVSNYFHWYRQKPGKAPELLIYSASNLQTGVPSRFTGSGSGTECTLTITSLQPDDFATYYCQQTHGYPFTFGQGTKLDVRR
notes: human-derived IgG1, kappa; also called MAB 5D1; hMAB 5D1
binds: human IFN-α21 | human IFN-α16 | human IFN-α10
no binding: g1mIFN-α9 | [1] | [2] | human IFN-α1
